Among the data in US20100286042A1 are cell proliferation promoting activity on BaF3 cells forced to express the receptor (in the presence of heparin), relative to FGF1 (fold of the activity of FGF1) values, retold here.

The experiment concerns the target FGFR2b. In words: cell-based or functional assay.

For the substance “basic fibroblast growth factor (FGF2) (from UniProt P09038 143-288) (ligand)”, the cell proliferation promoting activity on BaF3 cells forced to express the receptor (in the presence of heparin), relative to FGF1 (fold of the activity of FGF1) is 0.001.
